# Reference: the RNAGym collection of RNA variant scans (doi:10.7554/elife.80360)
# B1: Hammerhead Ribozyme (parent)
# chain: ACCGGAUGUGCUUUCCGGUCUGAUGAGUCCGUGAGGACGAAACAG
# B2: CPEB3 Ribozyme (parent)
# chain: GGGGGCCACAGCAGAAGCGUUCACGUCGCGGCCCCUGUCAGAUUCUGGUGAAUCUGCGAAUUCUGCUGU
# Variants of: B1
# Assay: self-cleavage, relative activity (ratio to wild type); higher = more cleavage; co-transcriptional
row,Variant,self-cleavage
1,A1C G18C,0.399
2,A1C G18U,0.353
3,A1C G18A,0.434
4,A1C G8U,0.465
5,A1C G8A,0.409
6,A1C G8C,0.432
7,A1G A23C,0.96
8,A1G A23U,0.424
9,A1G A23G,0.413
10,A1C U28G,0.302
11,A1C U28C,0.405
12,A1C U28A,0.389
13,A1C U32C,0.514
14,A1C U32A,0.363
15,A1C U32G,0.302
16,A1C U19C,0.365
17,A1C U19A,0.344
18,A1C U19G,1.12
19,A1C G17C,0.391
20,A1C G17U,0.346
21,A1C G17A,0.391
22,A1C U13C,0.513
23,A1C U13A,0.557
24,A1C U13G,0.556

row,Variant,self-cleavage
1,A1C A44U,0.377
2,A1C A44G,0.594
3,A1C A44C,0.376
4,A1C A40G,0.298
5,A1C A40U,0.484
6,A1C A40C,0.446
7,A1C G22C,0.352
8,A1C G22A,0.396
9,A1C G22U,0.466
10,A1C C2G,0.524
11,A1C C2U,2.17
12,A1C C2A,1.75
13,A1C G35U,0.435
14,A1C G35C,0.406
15,A1C G35A,0.404
16,A1C U21C,0.293
17,A1C U21A,0.343
18,A1C U21G,0.337
19,A1C U24G,0.368
20,A1C U24C,0.34
21,A1C U24A,0.471
22,A1C C38A,0.408
23,A1C C38U,0.495
24,A1C C38G,0.39

row,Variant,self-cleavage
1,A1C A37G,0.348
2,A1C A37U,0.34
3,A1C A37C,0.404
4,A1C G45U,0.437
5,A1C G45A,0.578
6,A1C G45C,0.441
7,A1G A26C,0.571
8,A1C G5U,0.444
9,A1C G5A,0.483
10,A1C G5C,0.286
11,A1C G36U,0.401
12,A1C G36A,0.394
13,A1C G36C,0.365
14,A1C A41C,0.372
15,A1C A41G,0.328
16,A1C A41U,0.341
17,A1C G33A,0.57
18,A1C G33U,0.561
19,A1C G33C,0.321
20,A1C G31A,0.454
21,A1C G31C,0.503
22,A1C G31U,0.561
23,A1C A23U,0.362
24,A1C A23G,0.326

row,Variant,self-cleavage
1,A1C A23C,0.287
2,A1C U14G,0.426
3,A1C U14C,0.331
4,A1C U14A,0.348
5,A1G,1.79
6,A1C,0.466
7,A1G A6G,1.5
8,A1G A6C,0.838
9,A1G A6U,1.08
10,A1C A6C,0.393
11,A1C A6G,0.417
12,A1C A6U,0.381
13,A1C C30G,0.34
14,A1C C30A,0.4
15,A1C C30U,0.364
16,A1C U12C,0.373
17,A1C U12A,0.471
18,A1C U12G,0.325
19,A1C C20A,0.349
20,A1C C20U,0.376
21,A1C C20G,0.354
22,A1C G25C,0.313
23,A1C G25A,0.255
24,A1C G25U,0.377

row,Variant,self-cleavage
1,A1C U7G,0.377
2,A1C U7A,0.29
3,A1C U7C,0.38
4,A1C G10A,0.38
5,A1C G10C,0.397
6,A1C G10U,0.339
7,A1C A26G,0.302
8,A1C A26U,0.352
9,A1C A26C,0.338
10,A1C C29U,0.402
11,A1C C29A,0.31
12,A1C C29G,0.341
13,A1C C3A,0.426
14,A1C C3U,0.345
15,A1C C3G,0.549
16,A1C G27C,0.357
17,A1C G27U,0.328
18,A1C G27A,0.332
19,A1C G39U,0.341
20,A1C G39A,0.438
21,A1C G39C,0.344
22,A1C C15A,0.497
23,A1C C15U,0.408
24,A1C C15G,0.43

row,Variant,self-cleavage
1,A1C G4C,0.472
2,A1C G4A,0.406
3,A1C G4U,0.353
4,A1C U9G,0.346
5,A1C U9A,0.399
6,A1C U9C,0.394
7,A1C A42U,0.322
8,A1C A42C,0.336
9,A1C A42G,0.367
10,A1C C43A,0.295
11,A1C C43G,0.285
12,A1C C43U,0.5
13,A1C A34G,0.385
14,A1C A34C,0.477
15,A1C A34U,0.384
16,A1C C11A,0.36
17,A1C C11G,0.395
18,A1C C11U,0.411
19,A1C C16U,0.347
20,A1C C16G,0.351
21,A1C C16A,0.453

# Variants of: B2
# Assay: as above
row,Variant,self-cleavage
1,U64C G68C,0.911
2,U64C G68A,0.931
3,C63U G68A,0.967
4,U64C U67A,0.864
5,U64C U67C,0.764
6,G68A U69G,1.06
7,U67A U69G,1.04
8,U67A U69A,0.996
9,U67A U69C,1.07
10,U67C U69G,1.11
11,U67C U69A,1.07
12,U67C G68U,1.06
13,U67C G68A,0.983
14,U67G G68U,1.1
15,U67G G68C,1.07
16,U62C G68A,1
17,U62C G68C,0.806
18,U62C G68U,0.934
19,C66G U67A,0.937
20,C66G U67G,0.909
21,U62A G68C,0.949
22,U62A G68A,0.924
23,C63G G65C,0.366
24,G65A G68A,0.941
25,G65A G68U,0.813

row,Variant,self-cleavage
1,G65A G68C,0.945
2,C66A U67A,0.977
3,C66A U67G,0.891
4,U64A C66U,0.668
5,U64A C66A,0.502
6,U64A C66G,0.417
7,U61G U67A,0.841
8,U61G U67C,0.708
9,C63U U67C,0.968
10,C63U U67G,0.985
11,G65A,0.954
12,G65U,0.877
13,G65C,0.758
14,U67G U69C,1.1
15,U67G U69A,1.1
16,U62A U67C,0.908
17,U62A U67A,0.924
18,G65C U69A,0.828
19,U62G C63G,0.334
20,U62G C63U,0.661
21,U62G C63A,0.856
22,U64A U67A,0.895
23,U64A U67G,0.922
24,C66U U69A,1.03
25,C66U U69C,1.06

row,Variant,self-cleavage
1,C63A G68A,0.964
2,C63A G68U,0.878
3,C63A G68C,0.931
4,U62G G68A,0.894
5,U62G G68U,0.683
6,G65U U67A,0.848
7,G65U U67G,0.92
8,G65U U67C,0.78
9,G65U C66G,0.814
10,G65U C66U,0.55
11,G65U C66A,0.669
12,U62G U69C,1.03
13,U62G U69G,1.01
14,U62G U69A,0.937
15,U64C U69C,1.07
16,C63A G65A,0.509
17,C63A G65U,0.789
18,U62G U67A,0.764
19,U62A U64C,0.61
20,U62A U64A,0.452
21,U64C C66U,0.624
22,U64C C66G,0.555
23,U67A G68A,1.07
24,U67A G68U,1.01
25,U67A G68C,0.955

row,Variant,self-cleavage
1,U61G C66A,0.495
2,U61G C66G,0.538
3,C66A G68U,0.799
4,C66A G68C,0.84
5,C63A U64C,0.639
6,C63A U64A,0.62
7,U61G,0.935
8,C63G U67C,0.569
9,C63G U67G,0.752
10,C63A U67A,0.757
11,C63A U67G,0.758
12,C63A U67C,0.651
13,U62A U69G,1
14,U62A U69A,0.942
15,C66G U69A,1.02
16,C66G U69G,0.923
17,C66G U69C,1.01
18,U61G G68A,0.988
19,U61G G68C,0.867
20,U61G G68U,0.826
21,G68U U69G,1.02
22,G68U U69C,1.1
23,G68U U69A,1.01
24,C66G G68A,0.96
25,G65A U69G,0.947

row,Variant,self-cleavage
1,U64A G65A,0.701
2,G65C C66G,0.65
3,G65C C66U,0.816
4,C66U U67G,1
5,C66U U67C,0.956
6,G65U U69A,0.835
7,G65U U69C,0.97
8,U62C G65C,0.488
9,C63U C66A,0.473
10,C63U C66U,0.863
11,U61G U64A,0.555
12,U61G U64G,0.397
13,U62A,0.957
14,U62G,0.925
15,U62C,0.927
16,G65A C66G,0.797
17,G65A C66U,0.77
18,U62C U67A,0.738
19,U62C U67G,0.865
20,U62C U67C,0.687
21,U62A C66A,0.499
22,U62A C66G,0.458
23,U62G C66U,0.579
24,U62G C66A,0.376
25,C63A U69G,0.991

row,Variant,self-cleavage
1,C63A U69C,1.07
2,C63A U69A,0.949
3,U69G,1.06
4,U69C,1.06
5,U69A,1.02
6,U62C C63U,0.795
7,U62C C63G,0.545
8,C66A U69A,0.969
9,U62G U64G,0.533
10,U62A G65A,0.546
11,U62C U69G,0.984
12,U62C U69A,1.01
13,U62C U69C,1.03
14,G65A U67G,0.887
15,G65A U67A,0.793
16,G65A U67C,0.844
17,C63U U64G,0.777
18,U64C G65A,0.565
19,U64C G65C,0.504
20,C63U U69A,1.02
21,C63U U69G,1.04
22,U64G G68U,0.923
23,U64G G68C,0.799
24,U64G G68A,1
25,U64G C66U,0.558

row,Variant,self-cleavage
1,U64G C66G,0.442
2,U62C C66A,0.5
3,G65C G68A,0.678
4,G68C U69G,1.11
5,G68C U69A,1.06
6,C63U,0.991
7,C63A,0.919
8,C63G,0.87
9,C66G,0.937
10,C66U,0.99
11,C66A,0.911
12,U61G G65U,0.483
13,U61G G65A,0.672
14,U64G G65A,0.578
15,U64G G65C,0.679
16,C63G G68U,0.584
17,C63G G68A,0.849
18,U64A G68U,0.922
19,U64A G68C,0.913
20,G65C U67C,0.905
21,G65C U67G,0.905
22,U61G U69G,0.999
23,C63G U64G,0.471
24,G65U G68C,0.852
25,C63G U69C,1.04

row,Variant,self-cleavage
1,C63G U69A,0.864
2,C66U G68C,0.991
3,U64G U69G,1.02
4,U64G U69A,0.97
5,U64G U69C,1.05
6,U62A C63A,0.822
7,U62A C63G,0.481
8,U62G G65C,0.475
9,U62G G65A,0.285
10,U61G C63A,0.673
11,U61G C63G,0.396
12,U61G C63U,0.57
13,U62C U64A,0.507
14,U62C U64G,0.489
15,U62C U64C,0.46
16,C63G C66U,0.387
17,C63G C66G,0.487
18,C63G C66A,0.248
